Assays:
[1] = biological target: TALE(KLF4)-NLS-CRY2PHR; assay: cell-based or functional assay
[2] = biological target: TALE(Ngn2)-NLS-CRY2PHR; assay: cell-based or functional assay

Which results are given for CIB1-NLS-VP64-2A_GFP?
KLF4 mRNA upregulation, saturated at 5 mW/cm2 (HEK293FT cells) [1]: 2.3 fold; Neurog2 expression peak at 12 h of light stimulation [2]: 19 fold; Neurog2 mRNA level 0.5 h after the end of a 6 h stimulation [2]: 16 fold; upregulation of Neurog2 expression at 0.5 h of light stimulation [2]: 5 fold
